According to publication PMC3079231 (International journal of mass spectrometry, 2011):
Changes are numbered by the printed parent chain. Names and notes keep the numbering of the source.

B1: Salmonella typhimurium AhpC T77I mutant (enzyme)
chain: SLINTKIKPFKNQAFKNGEFIEVTEKDTEGRWSVFFFYPADFTFVCPTELGDVADHYEELQKLGVDVYSVSTDTHFIHKAWHSSSETIAKIKYAMIGDPTGALTRNFDNMREDEGLADRATFVVDPQGIIQAIEVTAEGIGRDASDLLRKIKAAQYVAAHPGEVCPAKWKEGEATLAPSLDLVGKI
modifications: oxidized form: intersubunit disulfide (Cys-46 to Cys-165); reduced form (TCEP): free thiols
B2: Salmonella typhimurium AhpC T77V mutant (enzyme)
chain: B1 chain with I77V
modifications: oxidized form: intersubunit disulfide (Cys-46 to Cys-165); reduced form (TCEP): free thiols

Molecular target: the molecule itself
Assay: HDX-MS

Row | Protein | binding result
1 | B1 | binds
2 | B2 | binds
